Laboratory results from publication doi:10.1101/2025.02.14.638310 (bioRxiv, 2025).

B1: 2A2 Fab (Fab, V domains shown)
VH: EVQLQQSGPELEKPGASVKISCKASGYSITDYNMNWVKLSNGKSLEWIGNIDPSHGGTTYNQKFKGKATLTVDKSSSTAYMQLKSLTSEDSAVYHCARSTLYGNSAMDCWGQGTSVTVSS
VL: SIVMTQTPKFLLVPAGDRVTITCKASQSVNNDVTWYQQKPGQSPKLLIYYASNRYTGVPDRFTGSGYGTDFTFTISTVQAEDLAVYFCQQDYSSPLTFGAGTKLEL
notes: also called mAb 2A2; 2A2.2a; source: Freestyle 293-F or 293-S cells, transfected, purified (KappaSelect, MonoS cation exchange)
B2: RUPA-44 Fab (Fab, V domains shown)
VH: QLQLQESGPGLVKPSETLSLTCTVSGGSISRSPYYWGWIRQPPGKGLEWFGSIYNNGSTYYNPPLKSRLTISVDTSKNQFSLKLSSVTAADTAVYYCARHGGSTGMKVVVIAPPDYWGQGTLVTVSS
VL: DIQMTQSPATLSASVGDRVTITCRASQSISSWLAWYQQKPGEAPKLLIYKASSLQSGVPSRFSGSGSGTKFSLTISSLQPDDFATFYCQQYHSYPYTFGQGTKLEIK
notes: source: Freestyle 293-F or 293-S cells, transfected, purified (KappaSelect, MonoS cation exchange)
B3: 18F25 Fab (Fab, V domains shown)
VH: QVQLQQSGAELARPGASVKLSCKASGYTFTNYWMQWVKQRPGQGLEWFGAIYPGDGDTRYTQKFKGKATLTADKSSSTAYMQLSSLASEDSAVYYCARSLYLGAMDYWGQGTSVTVSS
VL: DIVMTQSHKFMSTSVGDRVSITCKASQDVTNDVAWYQQKPGQSPKLLIYSASYRYTGVPDRFTGSGSGTDFIFTISSVQAEDLAVYYCQQHYSAPPTFGGGTKLEIK
notes: also called mAb 18F25; 18F25.1; source: Freestyle 293-F or 293-S cells, transfected, purified (KappaSelect, MonoS cation exchange)
B4: Pfs48/45 (endogenous) (natural protein)
chain: NNDFCKPSSLNSEISGFIGYKCNFSNEGVHNLKPDMRERRSIFCTIHSYFIYDKIRLIIPKKSSSPEFKILPEKCFQKVYTDYENRVETDISELGLIEYEIEENDTNPNYNERTITISPFSPKDIEFFCFCDNTEKVISSIEGRSAMVHVRVLKYPHNILFTNLTNDLFTYLPKTYNESNFVSNVLEVELNDGELFVLACELINKKCFQEGKEKALYKSNKIIYHKNLTIFKAPFYVTSKDVNTECTCKFKNNNYKIVLKPKYEKKVIHGCNFSSNVSSKHTFTDSLDISLVDDSAHISCNVHLSEPKYNHLVGLNCPGDIIPDCFFQVYQPESEELEPSNIVYLDSQINIGDIEYYEDAEGDDKIKLFGIVGSIPKTTSFTCICKKDKKSAYMTVTID
B5: RUPA-47 Fab (Fab, V domains shown)
VH: QVQLVQSGAEVKKPGASVKLSCTASGYTFTNFGITWVRQAPGQGLEWMAWISVYSGDTDYAQRFQGRVTMTTDTSTRTAYMEMRSLSFDDTAVYYCVRGGRDSPILGGYWGQGTLVTVSS
VL: EIVLTQSPGTLSLSPGERVTLSCRASQSVRSMYLAWYQQKPGQAPRLLIHGASIRATGIPDRFSGSGSGTDFTLTISRLEREDFAVYYCHQYGSSPLTFGGGTKVESK
notes: as for B2
B6: RUPA-71 Fab (Fab, V domains shown)
VH: EEQLVESGGGLVKPGRSLRLSCSASGFTLGDYAVTWFRQASGKEPEWVGVIRTKDEGGTTEYAASVKGRFSILRDDSKSIAHLQMNSLKIEDTAVYYCTRNGLRWYDSSGPRGWAFDIWGPGTLVVVSS
VL: EIVMTQSPATVSVSPGERATLSCRTSQSVSNKLAWYQQKPGQAPRLLIYGASTRATGIPARFSGSGSGTQFTLTISSLQSEDFAVYYCQQYNNWPPWTFGRGTKVEIK
notes: as for B2

What was measured:
[1] = biological target: T1, Pfs230 fused C-terminally with a 3xFLAG-C-tag (endogenous, parasite line iGP2^230-tag) (Plasmodium falciparum (endogenous in …, UniProt P68874)); experiment: native gel or EMSA; conditions: both partners purified
T1 construct: not shown: 3xFLAG, C-terminal, kept

Pfs48/45 (endogenous) = Pfs48/45 (endogenous) (Plasmodium falciparum (endogenous in …, UniProt Q8I6T1)); experiment: cryo-EM structure; conditions: both partners purified
[2] = biological target: T2, Pfs230D7 (recombinant, WT) (Plasmodium falciparum 3D7, UniProt P68874); experiment: SPR; conditions: both partners purified
T2 construct: source: wheat germ cell-free extract WEPRO7240H with Disulfide Bond Enhancer Enzyme Set, purified (Ni Sepharose 6 Fast Flow)

[3] = biological target: T3, Pfs230 fused C-terminally with a 3xFLAG-C-tag (endogenous, parasite line iGP2^230-tag) (Plasmodium falciparum (endogenous in …, UniProt P68874 21-3135)); experiment: affinity purification with mass spectrometry; conditions: partners not purified
T3 construct: not shown: 3xFLAG, C-terminal, kept

[4] = biological target: T4, Pfs230:Pfs48/45 complex (endogenous, FLAG-tag purified) (Plasmodium falciparum (isolate 3D7)., UniProt P68874;Q8I6T1); experiment: native gel or EMSA; conditions: both partners purified
T4 construct: not shown: 3xFLAG, C-terminal, kept
T4 sequence (P68874 21-3135, one chain of several): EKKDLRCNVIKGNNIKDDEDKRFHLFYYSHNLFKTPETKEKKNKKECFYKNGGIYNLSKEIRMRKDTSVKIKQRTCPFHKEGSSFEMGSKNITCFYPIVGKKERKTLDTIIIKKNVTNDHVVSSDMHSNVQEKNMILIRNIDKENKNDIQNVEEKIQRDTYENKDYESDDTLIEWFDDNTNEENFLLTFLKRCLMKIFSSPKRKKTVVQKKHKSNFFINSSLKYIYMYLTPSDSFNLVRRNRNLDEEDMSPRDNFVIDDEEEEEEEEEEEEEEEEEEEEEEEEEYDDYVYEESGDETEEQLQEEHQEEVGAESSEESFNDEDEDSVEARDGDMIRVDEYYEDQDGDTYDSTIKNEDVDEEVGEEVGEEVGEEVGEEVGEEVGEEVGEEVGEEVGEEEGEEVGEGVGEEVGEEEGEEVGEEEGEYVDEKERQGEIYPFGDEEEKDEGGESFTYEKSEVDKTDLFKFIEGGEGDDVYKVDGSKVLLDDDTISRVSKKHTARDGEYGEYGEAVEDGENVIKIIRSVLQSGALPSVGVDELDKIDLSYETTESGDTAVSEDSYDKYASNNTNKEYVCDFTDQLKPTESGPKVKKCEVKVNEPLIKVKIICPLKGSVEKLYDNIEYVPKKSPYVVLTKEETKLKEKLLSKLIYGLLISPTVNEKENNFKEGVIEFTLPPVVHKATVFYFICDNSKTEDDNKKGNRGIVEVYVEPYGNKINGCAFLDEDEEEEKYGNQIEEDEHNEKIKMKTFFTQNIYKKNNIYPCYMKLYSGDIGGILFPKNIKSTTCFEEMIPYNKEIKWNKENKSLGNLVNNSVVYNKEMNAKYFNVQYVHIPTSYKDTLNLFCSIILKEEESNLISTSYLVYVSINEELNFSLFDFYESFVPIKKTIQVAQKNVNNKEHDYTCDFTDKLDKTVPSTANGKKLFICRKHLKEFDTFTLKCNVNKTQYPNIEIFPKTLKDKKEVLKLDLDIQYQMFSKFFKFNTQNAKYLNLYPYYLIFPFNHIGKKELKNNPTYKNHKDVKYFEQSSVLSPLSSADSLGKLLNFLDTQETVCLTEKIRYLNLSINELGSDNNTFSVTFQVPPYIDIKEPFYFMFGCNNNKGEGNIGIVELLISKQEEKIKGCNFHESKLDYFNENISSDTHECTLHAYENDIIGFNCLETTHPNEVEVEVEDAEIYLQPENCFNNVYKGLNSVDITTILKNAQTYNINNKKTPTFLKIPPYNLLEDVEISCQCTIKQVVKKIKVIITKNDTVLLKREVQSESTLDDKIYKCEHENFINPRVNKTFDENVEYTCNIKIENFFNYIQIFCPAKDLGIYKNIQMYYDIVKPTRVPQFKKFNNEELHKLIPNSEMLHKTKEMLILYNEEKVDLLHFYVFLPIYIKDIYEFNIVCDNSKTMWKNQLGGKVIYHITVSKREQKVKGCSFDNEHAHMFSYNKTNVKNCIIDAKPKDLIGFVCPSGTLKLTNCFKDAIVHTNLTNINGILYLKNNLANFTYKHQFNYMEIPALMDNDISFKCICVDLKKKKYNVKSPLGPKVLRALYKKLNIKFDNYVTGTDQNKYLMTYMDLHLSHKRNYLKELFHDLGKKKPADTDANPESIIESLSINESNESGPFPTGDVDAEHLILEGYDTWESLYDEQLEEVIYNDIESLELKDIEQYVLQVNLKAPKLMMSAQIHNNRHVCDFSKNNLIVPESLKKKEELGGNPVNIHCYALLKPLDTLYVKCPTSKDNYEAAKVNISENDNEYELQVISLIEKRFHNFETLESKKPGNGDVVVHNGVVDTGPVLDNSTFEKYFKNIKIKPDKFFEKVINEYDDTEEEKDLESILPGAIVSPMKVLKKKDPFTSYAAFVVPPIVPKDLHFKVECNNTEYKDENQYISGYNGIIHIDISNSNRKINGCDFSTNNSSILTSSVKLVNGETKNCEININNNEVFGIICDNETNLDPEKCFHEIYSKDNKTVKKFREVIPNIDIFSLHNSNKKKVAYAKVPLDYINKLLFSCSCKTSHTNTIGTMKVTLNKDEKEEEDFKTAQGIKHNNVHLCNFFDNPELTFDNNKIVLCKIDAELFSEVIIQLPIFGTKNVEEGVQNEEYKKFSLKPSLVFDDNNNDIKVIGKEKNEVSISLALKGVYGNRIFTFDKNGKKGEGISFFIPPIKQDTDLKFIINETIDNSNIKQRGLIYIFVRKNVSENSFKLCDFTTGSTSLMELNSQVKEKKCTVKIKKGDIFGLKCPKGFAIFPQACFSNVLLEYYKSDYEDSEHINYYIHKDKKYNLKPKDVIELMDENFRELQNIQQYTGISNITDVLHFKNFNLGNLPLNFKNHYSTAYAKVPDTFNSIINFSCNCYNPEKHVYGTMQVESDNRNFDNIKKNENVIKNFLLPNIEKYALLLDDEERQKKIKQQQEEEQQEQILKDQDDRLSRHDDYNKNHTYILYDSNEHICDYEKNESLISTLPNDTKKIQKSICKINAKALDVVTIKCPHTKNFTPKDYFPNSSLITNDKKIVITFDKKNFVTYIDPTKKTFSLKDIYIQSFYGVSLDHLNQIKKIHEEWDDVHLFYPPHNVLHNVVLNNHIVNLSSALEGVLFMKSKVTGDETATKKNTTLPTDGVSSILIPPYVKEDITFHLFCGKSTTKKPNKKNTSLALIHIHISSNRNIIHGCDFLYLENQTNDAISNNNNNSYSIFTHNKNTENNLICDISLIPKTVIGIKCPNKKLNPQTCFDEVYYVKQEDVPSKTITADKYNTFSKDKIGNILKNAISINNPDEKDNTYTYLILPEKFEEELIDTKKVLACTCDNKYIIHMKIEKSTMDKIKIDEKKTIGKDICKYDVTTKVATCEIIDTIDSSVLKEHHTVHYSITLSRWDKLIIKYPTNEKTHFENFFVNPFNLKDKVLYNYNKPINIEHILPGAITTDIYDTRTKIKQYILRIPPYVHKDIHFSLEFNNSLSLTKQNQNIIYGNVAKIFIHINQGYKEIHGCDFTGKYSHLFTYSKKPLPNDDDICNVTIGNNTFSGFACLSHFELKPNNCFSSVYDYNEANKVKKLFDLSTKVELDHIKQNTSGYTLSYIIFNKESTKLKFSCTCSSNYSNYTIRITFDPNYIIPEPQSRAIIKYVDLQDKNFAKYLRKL

Binder	binding result [1]	binding result (Pfs48/45 (endogenous))	binding result [4]	other results
B1	binds			
B2		binds		
B3				Kd [2]: 1.8 nM
B4				binding result [3]: binds
B5	no binding (tested: tenfold molar excess Fab)		binds	
B6		binds	binds	
